Data on three molecules can be found in patent publication US20120282282A1, “Methods for Decreasing Ocular Toxicity of Antibody Drug Conjugates” (priority 2011, published 2012).

Read-outs that look alike come from different tables or passages of the source.

The format of data set [1] is in vivo. The conditions noted are these: rabbit, 3 weekly doses. Here is the method:
Maytansinoid conjugates with different linker-maytansinoid formats were evaluated for induction of corneal ocular toxicity in a preclinical rabbit model. Hallmarks of corneal epithelial damage such as migration of pigmented basal epithelial cells distal from the limbus, corneal pannus, and epithelial erosion were assessed following 3 weekly doses.

The nature of data set [2]: SAR3419 Phase I clinical trials, pharmacokinetics and toxicity. It counts as in vivo, human. An excerpt:
SAR3419 is a DM4-containing antibody drug conjugate that comprises the humanized antibody Hu-B4 (humanized mouse IgG1 MAb targeting CD19) and the SPDB linker. Phase I clinical trials were initiated in patients having relapsed or refractory CD19+B cell Non-Hodgkins Lymphoma.

A short description of data set [3]: IMGN242 preclinical pharmacokinetic studies, cynomolgus monkeys. In kind it is in vivo. Here is the method: (§1) IMGN242 is an antibody drug conjugate for the treatment of CanAg-expressing tumors. The compound is made by conjugating the potent cytotoxic maytansinoid, DM4, to the monoclonal antibody, huC242. Forty-five patients have been treated with IMGN242 at 8 different dose levels (18 to 297 mg/m2) in two clinical trials. […] The determined half-life in patients was similar to that predicted for IMGN242 from preclinical pharmacokinetic studies (t1/2 about 5 days in mice and 4 days in cynomolgus monkeys).

Data set [4] is described as follows: IMGN242 pharmacokinetics and toxicity in human clinical trials. In kind it is in vivo.
The nature of data set [5]: IMGN242 preclinical pharmacokinetic studies, mice. In kind it is in vivo. How it is done: as §1
Where [6] appears, read: patients, 160 mg/m^2 and 208 mg/m^2.
Setting [7] is: patients with low circulating CanAg (<1000 U/mL).

For SMCC-DM1, the corneal ocular toxicity entry in data set [1] (dose 8 mg/kg), in data set [1] (dose 10 mg/kg), in data set [1] (dose 12 mg/kg) and in data set [1] (dose 16 mg/kg) was “−” in each case.
Regarding SAR3419, in data set [2] (setting [6]), the elimination entry is given as “eliminated rapidly” and the exposure versus dose result is “increased with dose”. Moreover, the ocular toxicity result in data set [2] (some patients, 160 mg/m^2 or 208 mg/m^2) is given as “displayed ocular toxicity”.

B1: IMGN242 (conjugate, chains of the INN, looked up)
VH: QVQLVQSGAEVKKPGETVKISCKASDYTFTYYGMNWVKQAPGQGLKWMGWIDTTTGEPTYAQKFQGRIAFSLETSASTAYLQIKSLKSEDTATYFCARRGPYNWYFDVWGQGTTVTVSS
VL: DIVMTQSPLSVPVTPGEPVSISCRSSKSLLHSNGNTYLYWFLQRPGQSPQLLIYRMSNLVSGVPDRFSGSGSGTAFTLRISRVEAEDVGVYYCLQHLEYPFTFGPGTKLELK
modifications: maytansinoid DM1 payload (mertansine)
In turn, B1 came in with a t1/2 in data set [3] of around 4 days. For the same molecule, in data set [4] (patients), the Cmax versus dose result is “increased proportionally with increasing dose” and the “effect of circulating CanAg levels on Cmax” value is “not significantly affected”. The molecule further returned an increase in clearance in data set [4] (patients with high CanAg (>1000 U/mL) compared to low (<1000 U/mL)) of 3 to 5 fold. In data set [4] (setting [7]), the “duration of initial rapid distribution phase” value is “about 48 hours” and the “pharmacokinetic profile in plasma” value was “two-phase pharmacokinetic profile”. The elimination phase half-life result in data set [4] (patients with low circulating CanAg, preliminary analysis) is “about 5 days”. Also, the “incidence of possible study drug-related ocular toxicities” value in data set [4] (patients with low plasma CanAg (<1000 U/ml), dose 168 mg/m2) is on record as “notable incidence”. The “dose limiting toxicities (DLTs)” value in data set [4] (patients, 18 to 297 mg/m2) is “decreased visual acuity, corneal deposits and keratitis”. Further, the t1/2 result in data set [5] is on record as “about 5 days”.
